Our source for the share of clamped vesicles that stay unfused after Ca2+ (1 mM), normal VAMP2, with 2 µM Cpx (tripartite interface of Syt1 with Cpx and SNAREs) values is article PMC7220375.

The target of the assay is full-length t-SNARE complex (mouse His6-SNAP25B, residues 1-206 and rat Syntaxin1A, residues 1-288) (mouse | rat) (UniProt P60879).
Sequence of full-length t-SNARE complex (mouse His6-SNAP25B, residues 1-206 and rat Syntaxin1A, residues 1-288) (mouse | rat) (P60879 whole entry, chain 1 of 2, the tested form may be a part): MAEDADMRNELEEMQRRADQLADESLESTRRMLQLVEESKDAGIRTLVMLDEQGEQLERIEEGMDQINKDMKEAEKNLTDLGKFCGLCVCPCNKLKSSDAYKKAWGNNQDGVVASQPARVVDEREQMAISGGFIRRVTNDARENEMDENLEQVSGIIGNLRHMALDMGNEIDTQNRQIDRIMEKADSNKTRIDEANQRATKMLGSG
Sequence of full-length t-SNARE complex (mouse His6-SNAP25B, residues 1-206 and rat Syntaxin1A, residues 1-288) (mouse | rat) (chain, as listed by the source, chain 2 of 2): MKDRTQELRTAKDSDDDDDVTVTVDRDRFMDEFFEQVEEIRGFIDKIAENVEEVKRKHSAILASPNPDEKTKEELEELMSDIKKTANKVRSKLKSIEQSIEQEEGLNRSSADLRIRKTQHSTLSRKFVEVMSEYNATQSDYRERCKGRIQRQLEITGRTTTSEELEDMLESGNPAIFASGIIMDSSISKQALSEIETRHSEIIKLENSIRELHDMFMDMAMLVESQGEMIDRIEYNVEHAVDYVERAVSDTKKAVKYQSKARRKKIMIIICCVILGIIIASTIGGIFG

On to “Syt1^LLQQ (rat Synaptotagmin1-His6, residues 57-421, L387Q/L394Q) (from UniProt P21707 57-421) (domain or fragment)”, for which the share of clamped vesicles that stay unfused after Ca2+ (1 mM), normal VAMP2, with 2 µM Cpx (tripartite interface of Syt1 with Cpx and SNAREs) is 25%.
